From US20210363255A1 (TRUEBINDING, published 2021)

T1: hPD-1 peptide No. 12 (TDKLAAFPED) (human)
T1 construct: also called PD1 peptide 12; peptide 12
T1 peptide: TDKLAAFPED


Experiments:
[1] = molecular target: Purified human PD1 extracellular domain produced in E. coli fused to Fc (Ray Biotech) (human) (UniProt Q15116); assay: blocking ELISA; E. coli hPD1 ECD-Fc coated, antibody at 20 ug/ml, competitor ligand biotinylated deglycosylated mPD-1 Fc
[2] = molecular target: T1, hPD-1 peptide No. 12 (TDKLAAFPED); assay: ELISA on hPD-1 peptide array

Purified human PD1 extracellular domain produced in E. coli fused to Fc (Ray Biotech) (human), sequence (Q15116 25-170): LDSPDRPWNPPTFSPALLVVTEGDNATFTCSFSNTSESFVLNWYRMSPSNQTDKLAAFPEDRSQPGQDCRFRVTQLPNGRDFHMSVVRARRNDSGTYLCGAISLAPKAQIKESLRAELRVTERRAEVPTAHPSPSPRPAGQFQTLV

Molecule | binding remaining, % of unblocked controls (% of unblocked controls) [1] | binding result [2]
mab12 (LS-C131333, LS Bio) (antibody) | 86 | –
IMT200 (antibody, V domains shown, Monoclonal raised against non-glycosylated His-tagged hPD-1 and detected with anti-mouse IgG-HRP; also called monoclonal antibody IMT200; anti-PD-1 mAb IMT200) VH: QVQLQQSGPELVKPGASVKISCKASGFAFSGSWMNWMKQRPGKGLEWIGRIYPGDGDTNYNGKSKGKATLTADTSSSTAYMQLSSLTSEDSAVYFCTRSTTILADYWGQGTTLTVSS VL: DIQMTQTTSSLSASLGDRVTISCRASQDIANYLNWYQQKPDGTVKLLIYYTSRKYSGVPSRFSGSGSGTDYSLTISNLDQEDIATYFCQQGKTLPWTFGGGTKLEIK | – | binds
